Test results from US6537972B1, “Compositions and methods for inhibiting human immunodeficiency virus infection by down-regulating human cellular genes” (Subsidiary No. 3., Inc., priority 1997, dated 2003).

B1: CF-025: GSE; antisense, gene for the ND2 subunit of human NADH dehydrogenase (nucleic acid)
antisense: GAAGAAGCAGGCCGGATGTCAGAGGGGTGCCTTGGGTAACCTCTGGGACTCAGAAGTGAAAGGGGGCTATTCCTAGTTTTATTGCTATAGCCATTATGATTATTAATGATGAGTAT
B2: CF-315: GSE; antisense of a sequence with identity to the gene for the ND6 subunit of human NADH dehydrogenase (nucleic acid)
antisense: AGATCCTATTGGTGCGTGGGCTTTGTATGATTATGGGCGTAGATTAGTAGTAGTTACTGGTTGAACATTGTTTGTTGGTGTATATATTGTAATTGGGATTGCTCGGGGGAATAGGTTATGTGATTAGGAGTAGGG
B3: CF-313: GSE; sense, gene encoding a human protein tyrosine phosphatase (nucleic acid)
sense: CATTTTGTTACATAAGGATGACTTTTTTATACAATGGAATAAATTATGGCATTTCTATTGAAATTTCAACGCTTTTGTTTCTTTGGCAACCACAC
B4: CF-117: GSE; antisense, gene for the ND6 subunit of human NADH dehydrogenase (nucleic acid)
antisense: GTGAAAGAGTATGATGGGGTGGTGGTTGTCGTAAACTTTAATAGTGTAGGAAGCTGAATAATTTATAAAGGAGAGGGGACAGGGTTGATTCGGGAGGATC
B5: CF-210: GSE; sense, gene encoding human herpesvirus-associated ubiquitin-specific protease (HAUSP) (nucleic acid)
sense: GCATTACAAAGAGTGTTCTATGAATTACAGCATAGTGATAAACCTGTAGGAACAAAAAAGTTAACAAAGTCATTTGGGTGGGAAACTTTAGATAGCTTCATGCAACATGATGTT
B6: CF-317: GSE; antisense, gene encoding phosphatidyl-inositol 3 kinase (nucleic acid)
antisense: CCAAGCTTCCTATCTTAAGCTGGGCGTTGATATCCAGGTCACAACTATAGATGTAGTGAAACTTCTCTGCTTCCCCCATCGCACCGTCTGCAAAGGTACCACC
B7: CF-204: GSE; antisense, gene encoding human calnexin (nucleic acid)
antisense: GGTTGTCAATCACAGGTCGCCACCAGACACCACATCCAGGAGCTGACTCACATCTAGGGTTGGCAATCTGAGGAGCCTCCCATTCTCCATCCATGTCTTCATCCCAA
B8: CF-004: GSE; sense, gene encoding human 2-oxoglutarate dehydrogenase (nucleic acid)
sense: GCGCAAAGCACGCGACATGGTGGGGCAGGTGGCCATCACAAGGATTGAGCAGCTGTCGCCATTCCCCTTTGACCTCCTGCTGAAGGAGGTGCAGAAGTACCCCAA
B9: CF-311: GSE; antisense, gene encoding a human protein tyrosine phosphatase (nucleic acid)
antisense: GGGGGCTCTGTTTGGTGGTCTCTCTAGCTGCACTGGTCTATCAAGCTGTTGGCTGGTCTCTCTCTCTGGCTGGGGATC
B10: CF-101: GSE; sense, identity with the gene for the ND2 subunit of human NADH dehydrogenase (nucleic acid)
sense: CATCAGCCCTTCTTAACATCTACTTCTACCTACGCCTAATCTACTCCACCTCAATCACACTACTCCCCATATCTAACAACGTAAAAATAAAATGACAGTTTGAGCATACAAAACCCACCCCATTCCTCCCCACACTCATCGCC
B11: CF-266: GSE; antisense, gene encoding human eukaryotic initiation factor 4B (nucleic acid)
antisense: GCCGTTCTTCTACTTCTCTTTCTCAAGCAGCAGTGTCAACAGGCTTTGCCCCTCCAAAGATAGAAGCAGCTCGAGTGGACTGGGAGGTACTAGCAGA
B12: CF-319: GSE; sense, identity with the gene for the ND6 subunit of human NADH dehydrogenase (nucleic acid)
sense: GATCCTCCCGAATCAACCCTGACCCCTCTCCTTCATAAATTATTCAGCTTCCTACACTATTAAAGTTTACCACAACCACCACGCCATCATACTCCTTCAC
B13: CF-273: GSE; sense, gene encoding human eukaryotic initiation factor 3 (nucleic acid)
sense: GCTCGTCAGTGTCCACCCCTCCTCGCAACTCCAGGCGCTCCTTTTTCTGCTCCATATAGAGCTCCTGGGCCATTTTCCGGTACTTCCGGAAATCTTCCATCATGGTGCGCCTTC
B14: CF-128: GSE; sense, gene for the ND4 subunit of human NADH dehydrogenase (nucleic acid)
sense: TCCTAGTCCTCACAATCATGGCAAGCCAGCGCCACTTATCCAGTGAACCACTATCACGAAAAAAACTCTACCTCTCTATACTAATCTCCCTACAAATCTCCTTAATTATAATATTCACAACCACAGA
B15: CF-302: GSE; antisense, gene encoding CD44 (nucleic acid)
antisense: GATCCCTGGGCGCGGGGCAGGGGCCGGCGGAGGACGGGACGAGGATGGCGGACCGAACCTGGCAGAGGCTGGG
B16: CF-286: GSE; sense, gene encoding human elongation factor 1 alpha (nucleic acid)
sense: CAGTTGGGGTGGGTGTCATCAAAGCAGTGGACAAGAAGGCTGCTGGAGCTGGCAAGGTCACCAAGTCTGCCCAGAAAGCTCAGAAGGCTAAATGAATATTATCCCTAATACCTGCCACCCCACTCTTAATCAGTGGTGGAAGAAC

What was measured:
[1] = tested on: latent HIV provirus in OM10.1 cells; assay: Inhibition of TNF-α induction of latent HIV provirus in OM10.1 cells (CD4 / p24 by flow cytometry); type: cell-based, HIV-1
Method: OM10.1 cells were cultured in RPMI 1640 glucose-free media prior to and during incubation with NADH dehydrogenase inhibitors and TNF-α induction. The inhibitors were added to the cells followed by TNF-α induction 1-2 hours later. The expression of CD4 by the cells was assessed by anti-CD4 antibody staining and flow cytometry after 24 hour incubation at 37° C.

[2] = tested on: HIV-1IIIB; assay: GSE selection by prevention of productive infection of CEM-ss cells by HIV-1IIIB; type: cell-based; settings: GSE from HeLa RFE library, selected in CEM-ss cells
Method: Additionally, a normalized RFE library made from HeLa cells was transferred into CEM-ss cells and the neo resistant population was infected with TCID50 of 3000/10^6 cells of HIV-1IIIB. This RFE library was represented by 50×10^6 independent recombinant clones. Four and seven days after infection, a purified anti-CD4 monoclonal antibody, L77 (Becton Dickinson), was added at 5 μg/ml to prevent syncytia formation. Syncytia formation is thought to be prevented by blocking the interaction between gp120 expressed on the surface of an infected cell and CD4 on the surface of an uninfected cell. […] At 10-12 days after infection, CD4^+, p24^− cell population representing uninfected cells were sorted. Genomic DNA from the CD4^+, p24^− cells was purified and used for PCR amplification of inserts with the vector-derived primers. The amplified mixture was digested with EcoRI and BamHI and cloned back into the retroviral vector. The selection was repeated for additional rounds.
(§1) In order to determine p24 expression in HIV-infected cells, the cells were first washed twice with Assay Buffer. About 10^6 cells were suspended in 100 μl Assay Buffer, mixed with 2 ml of Ortho PermeaFix Solution (Ortho Diagnostics), and incubated for 40 min. at room temperature. After centrifugation at 1200 rpm for 4 min. at 4° C., the cells were resuspended in 2 ml Wash Buffer (500 ml PBS, 25 ml fetal bovine serum, 1.5% bovine serum albumin and 0.0055% EDTA) for 10 min. at room temperature. After centrifugation, the cells were resuspended in 50 μl Wash Buffer and mixed with 1:500 dilution of an IgG22, antibody for 20 min. at 4° C., followed by incubation with 5-10 μl of anti-p24 antibody (KC57-FITC, Coulter) for 30 min. at 4° C. The cells were then washed twice with Wash Buffer and analyzed by flow cytometry.

[3] = tested on: HIV-1SF2; assay: Protection of GSE-transduced CEM-ss cells from productive infection with HIV-1SF2 (intracellular p24); type: cell-based; settings: HIV-1SF2 at TCID50 of 1000; versus LNGFRM vector control; FIG. 3, 23, 24
Method: In Section 6.2, infra, several GSEs were tested for their ability to protect CEM-ss cells from infection with HIV-1 strain SF2. Uninfected cells were transduced with a retroviral construct containing either vector DNA or a GSE polynucleotide. Non-transduced cells were eliminated by selection of NGFR^+ cells by an antibody or by exposure to the selection agent, G-418. The percentage of p24^+ cells was determined at specific time points post infection.
as §1
A total of twenty GSEs were isolated by the two aforementioned selection strategies using OM10.1 and CEM-ss cells. […]

[4] = tested on: latent HIV-1 provirus in OM10.1 cells; assay: GSE selection by maintained CD4 expression in OM10.1 cells after TNF-α induction; type: cell-based; settings: GSE from HL-60 RFE library, selected in OM10.1 cells
Method: The libraries prepared from HL-60 cells according to the method of Section 6.1.1. supra, were transfected into the packaging cell line, PA317 (ATCC CRL #9078), and converted into retrovirus for infection of OM10.1 cells. Libraries in pLNCX vector were co-cultured and selected with G418. Libraries in pLNGFRM vector were transduced by spinoculation (centrifugation of target cells at 1200 xg for 90 min. in the presence of filtered retroviral supernatant) and selected by FACS sorting of the NGFR^+ population. After selection, the OM10.1 cells harboring the entire RFE library were induced with 10 U/ml of TNF-α at 37° C., and 24 hours later, were stained with an antibody and sorted for CD4 expression. Genomic DNA from the CD4^+ cells was purified and used for PCR amplification of inserts with the vector-derived primers. The amplified mixture was digested with EcoRI and BamHI and cloned back into the retroviral vector. The selection was repeated for additional rounds.
For the immunofluorescent staining of CD4^+ cells for selection, 10^7 cells were washed twice with Assay Buffer (500 ml PBS, 1 ml of 0.5 mM of EDTA at pH 8, 0.5 ml of 10% sodium azide and 10 ml of fetal bovine serum), and resuspended in 500 μl PBS to which 50 μl of anti-CD4 antibody (Q4120 PE, Sigma) was added. After incubation at 4° C. for 30 min., 5 ml of Assay Buffer was added and the cells centrifuged at 1200 rpm for 4 min. The cells were washed twice with Assay Buffer before sorting by FACS. The aforementioned procedure was performed under sterile conditions.
GSEs derived from cDNAs representing expressed human cellular genes were identified and isolated from a RFE library made from HL-60 cells using HIV provirus activation in OM10.1 cells as a read-out. Following transfection of the entire library into a packaging cell line, retrovirus carrying the library was used to infect OM10.1 cells by co-cultivation or spinoculation, and NGFR selection was performed to ensure the retention of the viral vector. When the infected cells were treated with TNF-α, a small number of residual CD4^+ cells were detected by an anti-CD4 antibody and sorted by FACS. The GSEs contained in these cells were recovered by PCR amplification and their nucleotide sequences determined.

Molecule	suppression of HIV infection by the GSE [2]	further results
CCC1(CCC(C)C)C(=O)NC(=O)NC1=O [amytal]	–	induction of latent HIV provirus in OM10.1 cells (retention of CD4 expression) ([1]; TNF-α-induced OM10.1 cells, 24 hour incubation, FIG. 25, 26): inhibited the induction of latent HIV provirus in OM10.1 cells in a dose-dependent manner; intracellular p24 levels in treated cells ([1]; compared with untreated controls): suppressed intracellular p24 levels
B1	suppresses HIV infection	–
B2	–	productive HIV infection of GSE-containing CEM-ss cells (intracellular p24+ cells) [3]: inhibited infection of human T cells by HIV-1SF2; suppression of HIV replication by the GSE [4]: suppresses HIV replication
B3	suppresses HIV infection	–
B4	–	suppression of HIV replication by the GSE [4]: suppresses HIV activities
B5	suppresses HIV infection	–
B6	suppresses HIV infection	–
B7	suppresses HIV infection	–
B8	suppresses HIV infection	–
B9	suppresses HIV infection	–
B10	–	suppression of HIV replication by the GSE [4]: HIV-suppressive activities
B11	suppresses HIV infection	–
B12	–	suppression of HIV replication by the GSE [4]: suppresses HIV replication
B13	suppresses HIV infection	–
B14	suppresses HIV infection	–
B15	suppresses HIV infection	–
B16	suppresses HIV infection	–
